Patent publication US20250027068
Residue numbers refer to the chain shown, from its start.

B1: PRT-632 (protein)
chain: MQITSVWTYGVTPLTPEQFRYNNYEVIHAPYKEGQGWYDITKAFDGKDNLLCGAATAGNMLHWWFDQNKTEIEAYLSKHPEKQKIIFNNQELFDLKAAIDTKDSQTNSQLFNYFRDKAFPNLSARQLGVMPDLVLDMFINGYYLNVFKTQSTDVNRPYQDKDKRGGIFDAVFTRGDQTTLLTARHDLKNKGLNDISTIIKQELTEGRALALSHTYANVSISHVINLWGADFNAEGNLEAIYVTDSDANASIGMKKYFVGINAHGHVAISAKKIEGENIGAQVLGLFTLSSGKDIWQKLSLEHHHHHH
B2: PRT-67 (protein)
chain: MANQEIRYSEVTPYHVTSVWTKGVTPPANFTQGEDVFHAPYVANQGWYDINKTFNGKDDLLCGAATAGNMLHWWFDQNKDQIKRYLEEHPEKQKINFNGEQMFDVKEAIDTKNHQLDSKLFEYFKEKAFPYLSTKHLGVFPDHVIDMFINGYRLSLTNHGPTPVKEGSKDPRGGIFDAVFTRGDQSKLLTSRHDFKEKNLKEISDLIKKELTEGKALGLSHTYANVRINHVINLWGADFDSNGNLKAIYVTDSDSNASIGMKKYFVGVNSAGKVAISAKEIKEDNIGAQVLGLFTLSTGQDSWNQTN
B3: PRT-68 (protein)
chain: B2 chain with N51T, A178D
B4: PRT-69 (protein)
chain: B2 chain with N51T, H114D
B5: PRT-5 (protein)
chain: B2 chain with N51T, K83E, E87K, E88K, H114S, K246E, S302I
B6: PRT-70 (protein)
chain: B2 chain with N51T, D80E
B7: PRT-71 (protein)
chain: MANQEIRYSEVTPYHVTSVWTKGVTPPANFTQGEDVFHAPYVANQGWYDITKTFNGKDDLLCGAATAGNMLHWWFDQNKEEIEAYLKKHPEKQKIMFGDQELLDVRKVINTKGSQTNSELFNYFRDKAFPGLSARRLGVMPDLVLDMFINGYYLNVYKTQTTDVNRTYQEKDKRGGIFDAVFTRGDQSKLLTSRHDFKEKNLKEISDLIKKELTEGKALGLSHTYANVRINHVINLWGADFDSNGNLKAIYVTDSDSNASIGMKKYFVGVNSAGKVAISAKEIKEDNIGAQVLGLFTLSTGQDIWNQTN
B8: PRT-74 (protein)
chain: B7 chain with Y14S, D59N, G113D, K173R, N201T
B9: PRT-73 (protein)
chain: B7 chain with E81K, G113D, S114D, Y157T, K173R, I304S
B10: PRT-72 (protein)
chain: B7 chain with N29K, E81Y, S114D, G131Y, Y157T, K173R
B11: PRT-691 (protein)
chain: MQITTVWTKGVTPPTPEQFRYNNEDVIHAPYLPNQGWYDITKTFNGKDNLLCGAATAGNMLHWWFDQNKTEIEAYLSKYPEKQKIIFNNQELFDLRAAINTKDSQTNSQLFNYFRDKAFPNLSARQLGVMPDLVLDMFINGYYLNVFKTQSTDVNRPYQDRDKRGGIFDAVFNRGDQTTLLTARHDLKNKTLNDISTLIKQELSSGKALALSHTYANVSISHVINLWGADFNAEGNLEAIYVTDSDANASIGMKKYYVGVNAHGKVAISAKKIEGENIGAQVLGLFTLSSGKDIWQKLSLEHHHHHH
B12: PRT-630 (protein)
chain: MQITSVWTKGVTPLTPEQFRYNNEDVIHAPYLAHQGWYDITKAFDGKDNLLCGAATAGNMLHWWFDQNKEEIENYLKKYPEKQKIIFNNQELFDLKAAIDTKDSQTNSQLFNYFRDKAFPNLSARQLGVMPDLVLDMFINGYYLNVFKTQSTDVNRPYQDKDKRGGIFDAVFTRGDQTTLLTARHDLKNKGLNDISTIIKQELTEGRALALSHTYANVSISHVINLWGADFNAEGNLEAIYVTDSDANASIGMKKYFVGINAHGHVAISAKKIEGENIGAQVLGLFTLSSGQEIWEQLSLEHHHHHH
B13: PRT-665 (protein)
chain: MQITSVWTKGVTPPTPEQFRYNNEDVIHAPYLAHQGWYDITKAFDGKDNLLCGAATAGNMLHWWFDQNKTEIEAYLSKYPEKQKIIFNNQELFDLRAAINTKDSQTNSQLFNYFRDKAFPNLSARQLGVMPDLVLDMFINGYYLNVFKTQSTDVNRPYQDKDKRGGIFDAVFTRGDQTTLLTARHDLSNKGLNDISTIIKQELTEGRALALSHTYANVSISHVINLWGADFNAEGNLEAIYVTDSDSNASIGMKKYYVGINASGHVAISAKKIEGEVIGAQVLGLFTLSSGKEIWQKLSLEHHHHHH
B14: PRT-659 (protein)
chain: MQITSVWTKGVTPLTPEQFRYNNEDVIHAPYLAHQGWYDITKAFDGKDNLLCGAATAGNMLHWWFDQNKTEIEAYLSKHPEKQKIIFNNQELFDLREAINTKDDQKDSKLFNYFREKAFPNLSARQLGVMPDLVLDMFINGYYLNVFKTQSTDVNRPYQDKDKRGGIFDAVFTRGDQTTLLTARHDLKNKGLNDISTIIKQELTEGRALALSHTYANVSISHVINLWGADFNAEGNLEAIYVTDSDANASIGMKKYFVGINAHGHVAISAKKIEGENIGAQVLGLFTLSSGKDIWQKLSLEHHHHHH
B15: PRT-563 (protein)
chain: MANQEIRYSEATPSHITSVWTKGVTPPTQFIQNEDVLHAPYIANQGWYDITKTFNGKDDLLCGAATAGNMLHWWFDQNKTQIENYLKKHPEKQKINFNGEQMFDVKEAIDTKDSQTDSALFSYFKDKAFPYLSTKHLGVFPDHVIDMFINGYRLSLTNHGPTPVKRQTKDPRGGIFDAVFTRGDQSKLLTARHDFKEKTLNEISQLIKQELTEGKALGLSHTYANVRINHVINLWGADFNAEGNLEAIYVTDSDSNASIGMKKYYVGVNAAGKVAISAKEIEGDNIGAQVLGLFTLSTGQDIWQQTNLEHHHHHH
B16: PRT-615 (protein)
chain: MQITSVWTKGVTPLTPEQFRYNNEDVIHAPYLAHQGWYDITKAFDGKDNLLCGAATAGNMLHWWFDQNKTEIEAYLSKYPEKQKIIFNNQELFDLRAAINTKDSQTNSQLFNYFRDKAFPNLSARQLGVMPDLVLDMFINGYYLNVFKTQSTDVNRPYQDKDKRGGIFDAVFNRGDQTTLLTARHDLKNKGLNDISTIIKQELSSGRALALSHTYANVSISHVINLWGADFNAEGNLEAIYVTDSDANSNIGMKKYKVGINAHGHVAISAKKIEGENIGAQVLGLFTLSSGKDIWQKLSLEHHHHHH
B17: PRT-608 (protein)
chain: B1 chain with Y9K, Y24E, E25D, K32L, E33A, G34H, N248D, A249E, S250K
B18: PRT-640 (protein)
chain: MQITSVWTKGVTPLTPEQFRYNNEDVIHAPYLAHQGWYDITKTFNGKDNLLCGAATAGNMLHWWFDQNKTEIEAYLSKHPEKQKIIFNNQELFDLKAAIDTKDSQTNSQLFNYFRDKAFPNLSARQLGVMPDLVLDMFINGYYLNVFKTQSTDVNRPYQDKDKRGGIFDAVFTRGDQTTLLTARHDLKNKGLNDISTIIKQELTEGRALALSHTYANVSISHVINLWGADFNAEGNLEAIYVTDSDADEKIGMKKYFVGINAHGHVAISAKKIEGENIGAQVLGLFTLSSGKDIWQKLSLEHHHHHH
B19: PRT-634 (protein)
chain: B1 chain with Y9K, E25D, E33P, G34N, R207K

Biological target: pooled human IgG

Protein | Enzyme Activity Endpoint Assay (purified): Fab′2 | Enzyme Activity Endpoint Assay (purified): Fc | Enzyme Activity Endpoint Assay (purified): IgG | Enzyme Activity Endpoint Assay (purified): scIgG | Enzyme Activity Endpoint Assay: Fab′2 | Enzyme Activity Endpoint Assay: Fc | Enzyme Activity Endpoint Assay: IgG | Enzyme Activity Endpoint Assay: scIgG
B1 | 703 ng/µL | 399 ng/µL | 0 ng/µL | 0 ng/µL |  |  |  | 
B2 | 10 ng/µL | 78 ng/µL | 23 ng/µL | 61 ng/µL |  |  |  | 
B3 | 51 ng/µL | 133 ng/µL | 16 ng/µL | 16 ng/µL |  |  |  | 
B4 | 45 ng/µL | 121 ng/µL | 14 ng/µL | 14 ng/µL |  |  |  | 
B5 |  |  |  |  | 34 ng/µL | 117 ng/µL | 18 ng/µL | 34 ng/µL
B6 | 47 ng/µL | 124 ng/µL | 14 ng/µL | 14 ng/µL |  |  |  | 
B7 | 53 ng/µL | 126 ng/µL | 25 ng/µL | 0 ng/µL |  |  |  | 
B8 | 26 ng/µL | 73 ng/µL | 23 ng/µL | 27 ng/µL |  |  |  | 
B9 | 52 ng/µL | 105 ng/µL | 28 ng/µL | 5 ng/µL |  |  |  | 
B10 | 41 ng/µL | 100 ng/µL | 14 ng/µL | 8 ng/µL |  |  |  | 
B11 | 184 ng/µL | 337 ng/µL | 110 ng/µL | 682 ng/µL |  |  |  | 
B12 | 850 ng/µL | 464 ng/µL | 0 ng/µL | 0 ng/µL |  |  |  | 
B13 | 816 ng/µL | 414 ng/µL | 63 ng/µL | 109 ng/µL |  |  |  | 
B14 | 946 ng/µL | 499 ng/µL | 0 ng/µL | 0 ng/µL |  |  |  | 
B15 | 816 ng/µL | 389 ng/µL | 0 ng/µL | 0 ng/µL |  |  |  | 
B16 | 778 ng/µL | 441 ng/µL | 0 ng/µL | 0 ng/µL |  |  |  | 
B17 | 863 ng/µL | 484 ng/µL | 0 ng/µL | 0 ng/µL |  |  |  | 
B18 | 951 ng/µL | 507 ng/µL | 0 ng/µL | 0 ng/µL |  |  |  | 
B19 | 755 ng/µL | 394 ng/µL | 0 ng/µL | 0 ng/µL |  |  |  | 
